Results: paper PMC8339339 (Redox Biology, 2021)

Molecular target: the molecule itself
Assay: non-reducing SDS-PAGE with immunoblot

B1: His-tagged human recombinant peroxiredoxin 1 with Cys83 changed to Ser83 (natural protein)
chain: MSSGNAKIGHPAPNFKATAVMPDGQFKDISLSDYKGKYVVFFFYPLDFTFVCPTEIIAFSDRAEEFKKLNCQVIGASVDSHFSHLAWVNTPKKQGGLGPMNIPLVSDPKRTIAQDYGVLKADEGISFRGLFIIDDKGILRQITVNDLPVGRSVDETLRLVQAFQFTDKHGEVCPAGWKPGSDTIKPDVQKSKEYFSKQK
stoichiometry N: 2
